Assay results reported in patent publication US20240182536A1 (MURAL ONCOLOGY, published 2024).

What was measured:
[1] = target: T1, IL-18 receptors on HEK-Blue IL-18 reporter cells (UniProt Q13478 19-541; O95256 20-599, limits assumed); assay: cell-based or functional assay
T1 sequence (looked up) 1: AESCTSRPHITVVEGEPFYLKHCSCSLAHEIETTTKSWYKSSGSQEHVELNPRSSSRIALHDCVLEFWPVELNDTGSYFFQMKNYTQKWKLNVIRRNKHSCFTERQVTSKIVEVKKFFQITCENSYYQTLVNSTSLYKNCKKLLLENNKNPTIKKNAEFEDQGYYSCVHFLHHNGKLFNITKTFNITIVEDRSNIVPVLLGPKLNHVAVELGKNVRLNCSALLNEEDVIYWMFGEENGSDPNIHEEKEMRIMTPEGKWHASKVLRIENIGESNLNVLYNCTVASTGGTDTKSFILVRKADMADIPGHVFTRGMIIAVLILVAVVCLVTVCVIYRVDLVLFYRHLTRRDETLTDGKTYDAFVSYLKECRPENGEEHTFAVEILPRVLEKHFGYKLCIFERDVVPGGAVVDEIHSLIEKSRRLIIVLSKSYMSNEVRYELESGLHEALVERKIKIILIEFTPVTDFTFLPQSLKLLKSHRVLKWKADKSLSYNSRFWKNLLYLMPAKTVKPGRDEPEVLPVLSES
T1 sequence (looked up) 2: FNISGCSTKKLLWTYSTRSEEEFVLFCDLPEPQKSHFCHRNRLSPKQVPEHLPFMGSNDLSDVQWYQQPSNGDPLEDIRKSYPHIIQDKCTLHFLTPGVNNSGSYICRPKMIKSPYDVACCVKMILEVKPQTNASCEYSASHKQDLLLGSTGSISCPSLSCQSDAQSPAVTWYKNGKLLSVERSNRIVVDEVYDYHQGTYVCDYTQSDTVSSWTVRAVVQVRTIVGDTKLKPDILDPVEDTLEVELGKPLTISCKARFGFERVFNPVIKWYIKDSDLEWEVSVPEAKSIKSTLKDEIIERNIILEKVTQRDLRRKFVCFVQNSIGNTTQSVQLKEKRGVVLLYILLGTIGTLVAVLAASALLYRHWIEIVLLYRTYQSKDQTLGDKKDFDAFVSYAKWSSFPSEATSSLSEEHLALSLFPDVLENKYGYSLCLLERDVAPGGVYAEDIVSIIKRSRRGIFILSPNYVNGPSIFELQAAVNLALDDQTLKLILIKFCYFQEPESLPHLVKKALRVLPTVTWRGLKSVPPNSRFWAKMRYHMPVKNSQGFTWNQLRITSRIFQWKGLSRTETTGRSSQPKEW

[2] = target: T2, IL-18 binding protein (IL-18BP) (UniProt O95998 31-194); assay: cell-based or functional assay
T2 sequence (looked up): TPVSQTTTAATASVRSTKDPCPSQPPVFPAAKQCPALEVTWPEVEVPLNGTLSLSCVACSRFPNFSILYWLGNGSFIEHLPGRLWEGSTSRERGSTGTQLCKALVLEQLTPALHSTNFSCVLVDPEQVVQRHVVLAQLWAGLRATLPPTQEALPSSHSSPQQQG

B1: IL-18 variant G3Q, E6H, D54N, S55I, T63S, N91V (ligand)
chain: YFQKLHSKLSVIRNLNDQVLFIDQGNRPLFEDMTDSDMRDNAPRTIFIISMYKNIQPRGMAVSISVKSEKISTLSSENKIISFKEMNPPDVIKDTKSDIIFFQRSVPGHDNKMQFESSSYEGYFLASEKERDLFKLILKKEDELGDRSIMFTVQNED
[1]
  Activity, No BP, DF-100000: 1.89
  Activity, No BP, DF-500000: 1.9
  Activity, No BP, DF-2500000: 1.64
[2]
  Activity, +100 nM BP, DF-1000002: 1.8
  Activity, +100 nM BP, DF-5000003: 1.43
  Activity, +100 nM BP, DF-25000004: 0.71
  Ratio (-BP/+BP), DF-1000005: 1.05
  Ratio (-BP/+BP), DF-5000006: 1.33
  Ratio (-BP/+BP), DF-25000007: 2.31

B2: IL-18 variant G3Q, E6N, D54Y, S55P, T63S, N91S, R104H (ligand)
chain: YFQKLNSKLSVIRNLNDQVLFIDQGNRPLFEDMTDSDMRDNAPRTIFIISMYKYPQPRGMAVSISVKSEKISTLSSENKIISFKEMNPPDSIKDTKSDIIFFQHSVPGHDNKMQFESSSYEGYFLASEKERDLFKLILKKEDELGDRSIMFTVQNED
[1]
  Activity, No BP, DF-100000: 1.37
  Activity, No BP, DF-500000: 0.75
  Activity, No BP, DF-2500000: 0.28
[2]
  Activity, +100 nM BP, DF-1000002: 0.9
  Activity, +100 nM BP, DF-5000003: 0.42
  Activity, +100 nM BP, DF-25000004: 0.14
  Ratio (-BP/+BP), DF-1000005: 1.52
  Ratio (-BP/+BP), DF-5000006: 1.76
  Ratio (-BP/+BP), DF-25000007: 1.97

B3: IL-18 variant G3Q, E6G, D54N, S55H, T63V, N91M, R104T (ligand)
chain: YFQKLGSKLSVIRNLNDQVLFIDQGNRPLFEDMTDSDMRDNAPRTIFIISMYKNHQPRGMAVVISVKSEKISTLSSENKIISFKEMNPPDMIKDTKSDIIFFQTSVPGHDNKMQFESSSYEGYFLASEKERDLFKLILKKEDELGDRSIMFTVQNED
[1]
  Activity, No BP, DF-100000: 1.99
  Activity, No BP, DF-500000: 1.82
  Activity, No BP, DF-2500000: 1.01
[2]
  Activity, +100 nM BP, DF-1000002: 1.83
  Activity, +100 nM BP, DF-5000003: 1.38
  Activity, +100 nM BP, DF-25000004: 0.7
  Ratio (-BP/+BP), DF-1000005: 1.09
  Ratio (-BP/+BP), DF-5000006: 1.32
  Ratio (-BP/+BP), DF-25000007: 1.44

B4: IL-18 variant G3I, E6D, D54A, S55F, N91Y, R104H (ligand)
chain: YFIKLDSKLSVIRNLNDQVLFIDQGNRPLFEDMTDSDMRDNAPRTIFIISMYKAFQPRGMAVTISVKSEKISTLSSENKIISFKEMNPPDYIKDTKSDIIFFQHSVPGHDNKMQFESSSYEGYFLASEKERDLFKLILKKEDELGDRSIMFTVQNED
[1]
  Activity, No BP, DF-100000: 2.1
  Activity, No BP, DF-500000: 1.96
  Activity, No BP, DF-2500000: 1.34
[2]
  Activity, +100 nM BP, DF-1000002: 2.05
  Activity, +100 nM BP, DF-5000003: 1.45
  Activity, +100 nM BP, DF-25000004: 0.74
  Ratio (-BP/+BP), DF-1000005: 1.02
  Ratio (-BP/+BP), DF-5000006: 1.35
  Ratio (-BP/+BP), DF-25000007: 1.81

B5: IL-18 variant G3E, E6H, R27S, D54A, S55T, T63S, N91F, R104S (ligand)
chain: YFEKLHSKLSVIRNLNDQVLFIDQGNSPLFEDMTDSDMRDNAPRTIFIISMYKATQPRGMAVSISVKSEKISTLSSENKIISFKEMNPPDFIKDTKSDIIFFQSSVPGHDNKMQFESSSYEGYFLASEKERDLFKLILKKEDELGDRSIMFTVQNED
[1]
  Activity, No BP, DF-100000: 2.08
  Activity, No BP, DF-500000: 1.83
  Activity, No BP, DF-2500000: 1.14
[2]
  Activity, +100 nM BP, DF-1000002: 1.8
  Activity, +100 nM BP, DF-5000003: 1.11
  Activity, +100 nM BP, DF-25000004: 0.41
  Ratio (-BP/+BP), DF-1000005: 1.16
  Ratio (-BP/+BP), DF-5000006: 1.65
  Ratio (-BP/+BP), DF-25000007: 2.79

B6: IL-18 variant G3L, E6Q, T63S, N91L, R104T (ligand)
chain: YFLKLQSKLSVIRNLNDQVLFIDQGNRPLFEDMTDSDMRDNAPRTIFIISMYKDSQPRGMAVSISVKSEKISTLSSENKIISFKEMNPPDLIKDTKSDIIFFQTSVPGHDNKMQFESSSYEGYFLASEKERDLFKLILKKEDELGDRSIMFTVQNED
[1]
  Activity, No BP, DF-100000: 2.12
  Activity, No BP, DF-500000: 2.01
  Activity, No BP, DF-2500000: 1.85
[2]
  Activity, +100 nM BP, DF-1000002: 1.81
  Activity, +100 nM BP, DF-5000003: 1.15
  Activity, +100 nM BP, DF-25000004: 0.46
  Ratio (-BP/+BP), DF-1000005: 1.17
  Ratio (-BP/+BP), DF-5000006: 1.75
  Ratio (-BP/+BP), DF-25000007: 4

B7: IL-18 variant G3Q, E6K, D54S, S55P, T63S, N91S, R104Q (ligand)
chain: YFQKLKSKLSVIRNLNDQVLFIDQGNRPLFEDMTDSDMRDNAPRTIFIISMYKSPQPRGMAVSISVKSEKISTLSSENKIISFKEMNPPDSIKDTKSDIIFFQQSVPGHDNKMQFESSSYEGYFLASEKERDLFKLILKKEDELGDRSIMFTVQNED
[1]
  Activity, No BP, DF-100000: 1.92
  Activity, No BP, DF-500000: 1.92
  Activity, No BP, DF-2500000: 1.4
[2]
  Activity, +100 nM BP, DF-1000002: 1.55
  Activity, +100 nM BP, DF-5000003: 1.15
  Activity, +100 nM BP, DF-25000004: 0.45
  Ratio (-BP/+BP), DF-1000005: 1.24
  Ratio (-BP/+BP), DF-5000006: 1.67
  Ratio (-BP/+BP), DF-25000007: 3.14

B8: IL-18 variant G3S, E6G, D54V, S55K, T63S, N91Y, R104T (ligand)
chain: YFSKLGSKLSVIRNLNDQVLFIDQGNRPLFEDMTDSDMRDNAPRTIFIISMYKVKQPRGMAVSISVKSEKISTLSSENKIISFKEMNPPDYIKDTKSDIIFFQTSVPGHDNKMQFESSSYEGYFLASEKERDLFKLILKKEDELGDRSIMFTVQNED
[1]
  Activity, No BP, DF-100000: 1.95
  Activity, No BP, DF-500000: 1.77
  Activity, No BP, DF-2500000: 1.26
[2]
  Activity, +100 nM BP, DF-1000002: 1.64
  Activity, +100 nM BP, DF-5000003: 0.85
  Activity, +100 nM BP, DF-25000004: 0.32
  Ratio (-BP/+BP), DF-1000005: 1.19
  Ratio (-BP/+BP), DF-5000006: 2.08
  Ratio (-BP/+BP), DF-25000007: 3.88

B9: IL-18 variant G3Y, E6N, N91Y, R104S (ligand)
chain: YFYKLNSKLSVIRNLNDQVLFIDQGNRPLFEDMTDSDMRDNAPRTIFIISMYKDSQPRGMAVTISVKSEKISTLSSENKIISFKEMNPPDYIKDTKSDIIFFQSSVPGHDNKMQFESSSYEGYFLASEKERDLFKLILKKEDELGDRSIMFTVQNED
[1]
  Activity, No BP, DF-100000: 1.87
  Activity, No BP, DF-500000: 1.79
  Activity, No BP, DF-2500000: 1.54
[2]
  Activity, +100 nM BP, DF-1000002: 1.78
  Activity, +100 nM BP, DF-5000003: 1.2
  Activity, +100 nM BP, DF-25000004: 0.6
  Ratio (-BP/+BP), DF-1000005: 1.05
  Ratio (-BP/+BP), DF-5000006: 1.5
  Ratio (-BP/+BP), DF-25000007: 2.59

B10: IL-18 variant G3E, E6G, N91M, R104A (ligand)
chain: YFEKLGSKLSVIRNLNDQVLFIDQGNRPLFEDMTDSDMRDNAPRTIFIISMYKDSQPRGMAVTISVKSEKISTLSSENKIISFKEMNPPDMIKDTKSDIIFFQASVPGHDNKMQFESSSYEGYFLASEKERDLFKLILKKEDELGDRSIMFTVQNED
[1]
  Activity, No BP, DF-100000: 2.05
  Activity, No BP, DF-500000: 2
  Activity, No BP, DF-2500000: 1.54
[2]
  Activity, +100 nM BP, DF-1000002: 1.93
  Activity, +100 nM BP, DF-5000003: 1.41
  Activity, +100 nM BP, DF-25000004: 0.53
  Ratio (-BP/+BP), DF-1000005: 1.06
  Ratio (-BP/+BP), DF-5000006: 1.41
  Ratio (-BP/+BP), DF-25000007: 2.92
